Measurements taken from IntAct's records for PubMed 19559006.

B1: Kinesin-like protein KIF21A (Homo sapiens), Q7Z4S6 (parent)
chain: MLGAPDESSVRVAVRIRPQLAKEKIEGCHICTSVTPGEPQVFLGKDKAFTFDYVFDIDSQQEQIYIQCIEKLIEGCFEGYNATVFAYGQTGAGKTYTMGTGFDVNIVEEELGIISRAVKHLFKSIEEKKHIAIKNGLPAPDFKVNAQFLELYNEEVLDLFDTTRDIDAKSKKSNIRIHEDSTGGIYTVGVTTRTVNTESEMMQCLKLGALSRTTASTQMNVQSSRSHAIFTIHVCQTRVCPQIDADNATDNKIISESAQMNEFETLTAKFHFVDLAGSERLKRTGATGERAKEGISINCGLLALGNVISALGDKSKRATHVPYRDSKLTRLLQDSLGGNSQTIMIACVSPSDRDFMETLNTLKYANRARNIKNKVMVNQDRASQQINALRSEITRLQMELMEYKTGKRIIDEEGVESINDMFHENAMLQTENNNLRVRIKAMQETVDALRSRITQLVSDQANHVLARAGEGNEEISNMIHSYIKEIEDLRAKLLESEAVNENLRKNLTRATARAPYFSGSSTFSPTILSSDKETIEIIDLAKKDLEKLKRKEKRKKKRLQKLEESNREERSVAGKEDNTDTDQEKKEEKGVSERENNELEVEESQEVSDHEDEEEEEEEEEDDIDGGESSDESDSESDEKANYQADLANITCEIAIKQKLIDELENSQKRLQTLKKQYEEKLMMLQHKIRDTQLERDQVLQNLGSVESYSEEKAKKVRSEYEKKLQAMNKELQRLQAAQKEHARLLKNQSQYEKQLKKLQQDVMEMKKTKVRLMKQMKEEQEKARLTESRRNREIAQLKKDQRKRDHQLRLLEAQKRNQEVVLRRKTEEVTALRRQVRPMSDKVAGKVTRKLSSSDAPAQDTGSSAAAVETDASRTGAQQKMRIPVARVQALPTPATNGNRKKYQRKGLTGRVFISKTARMKWQLLERRVTDIIMQKMTISNMEADMNRLLKQREELTKRREKLSKRREKIVKENGEGDKNVANINEEMESLTANIDYINDSISDCQANIMQMEEAKEEGETLDVTAVINACTLTEARYLLDHFLSMGINKGLQAAQKEAQIKVLEGRLKQTEITSATQNQLLFHMLKEKAELNPELDALLGHALQDLDSVPLENVEDSTDEDAPLNSPGSEGSTLSSDLMKLCGEVKPKNKARRRTTTQMELLYADSSELASDTSTGDASLPGPLTPVAEGQEIGMNTETSGTSAREKELSPPPGLPSKIGSISRQSSLSEKKIPEPSPVTRRKAYEKAEKSKAKEQKHSDSGTSEASLSPPSSPPSRPRNELNVFNRLTVSQGNTSVQQDKSDESDSSLSEVHRSSRRGIINPFPASKGIRAFPLQCIHIAEGHTKAVLCVDSTDDLLFTGSKDRTCKVWNLVTGQEIMSLGGHPNNVVSVKYCNYTSLVFTVSTSYIKVWDIRDSAKCIRTLTSSGQVTLGDACSASTSRTVAIPSGENQINQIALNPTGTFLYAASGNAVRMWDLKRFQSTGKLTGHLGPVMCLTVDQISSGQDLIITGSKDHYIKMFDVTEGALGTVSPTHNFEPPHYDGIEALTIQGDNLFSGSRDNGIKKWDLTQKDLLQQVPNAHKDWVCALGVVPDHPVLLSGCRGGILKVWNMDTFMPVGEMKGHDSPINAICVNSTHIFTAADDRTVRIWKARNLQDGQISDTGDLGEDIASN
partner: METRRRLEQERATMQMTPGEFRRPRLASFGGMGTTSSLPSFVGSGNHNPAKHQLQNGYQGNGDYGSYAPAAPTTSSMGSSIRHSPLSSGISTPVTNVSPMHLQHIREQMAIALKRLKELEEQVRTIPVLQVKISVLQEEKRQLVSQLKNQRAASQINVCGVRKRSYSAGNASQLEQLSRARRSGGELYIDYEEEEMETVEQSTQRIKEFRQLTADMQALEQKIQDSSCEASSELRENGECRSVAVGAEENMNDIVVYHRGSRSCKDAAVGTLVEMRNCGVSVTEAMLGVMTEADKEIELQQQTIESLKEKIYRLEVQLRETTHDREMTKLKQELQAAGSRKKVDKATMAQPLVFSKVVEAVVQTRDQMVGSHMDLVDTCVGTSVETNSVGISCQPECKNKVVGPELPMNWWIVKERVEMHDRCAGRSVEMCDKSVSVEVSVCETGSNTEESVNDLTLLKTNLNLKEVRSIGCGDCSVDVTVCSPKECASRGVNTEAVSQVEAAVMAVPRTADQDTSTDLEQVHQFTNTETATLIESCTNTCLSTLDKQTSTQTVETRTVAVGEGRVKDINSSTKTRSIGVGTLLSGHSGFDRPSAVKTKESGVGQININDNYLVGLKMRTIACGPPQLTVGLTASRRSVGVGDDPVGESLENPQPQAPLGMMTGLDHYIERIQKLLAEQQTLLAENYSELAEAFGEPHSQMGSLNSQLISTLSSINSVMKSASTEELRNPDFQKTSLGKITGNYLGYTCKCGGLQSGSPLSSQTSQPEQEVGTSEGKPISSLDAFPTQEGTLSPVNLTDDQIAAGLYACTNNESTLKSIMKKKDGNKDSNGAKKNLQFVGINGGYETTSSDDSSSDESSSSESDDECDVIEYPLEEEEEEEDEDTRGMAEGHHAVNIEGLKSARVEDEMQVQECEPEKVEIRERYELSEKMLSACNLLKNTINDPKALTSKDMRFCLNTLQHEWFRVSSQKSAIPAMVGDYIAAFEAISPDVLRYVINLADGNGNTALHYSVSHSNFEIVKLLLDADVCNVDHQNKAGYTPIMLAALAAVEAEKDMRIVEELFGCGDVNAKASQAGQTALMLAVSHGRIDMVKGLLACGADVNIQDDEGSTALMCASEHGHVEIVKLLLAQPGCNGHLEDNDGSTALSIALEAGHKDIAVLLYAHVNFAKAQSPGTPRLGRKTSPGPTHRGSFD

Variants of: B1
Settings: with KANK1, Q14678-2

Row | effect of a mutation on the interaction | Variant
1 | increasing interaction | R954W
2 | increasing interaction | M947T
